T1: TβRII-SE/Fc (TβRII-Soluble Endogenous fused to the human IgG1 Fc domain) (human)
T1 chain: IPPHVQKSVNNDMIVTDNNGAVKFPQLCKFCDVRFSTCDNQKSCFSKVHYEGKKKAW

B1: TGF-β3 (ligand)
chain: ALDTNYCFRNLEENCCVRPLYIDFRQDLGWKWVHEPKGYYANFCSGPCPYLRSADTTHSTVLGLYNTLNPEASASPCCVPQDLEPLTILYYVGRTPKVEQLSNMVVKSCKCS
B2: TGF-β2 (ligand)
chain: ALDAAYCFRNVQDNCCLRPLYIDFKRDLGWKWIHEPKGYNANFCAGACPYLWSSDTQHSRVLSLYNTINPEASASPCCVSQDLEPLTILYYIGKTPKIEQLSNMIVKSCKCS

What was measured:
Test in all cases: SPR
1D11 = biological target: 1D11
[1] = biological target: T1, TβRII-SE/Fc (TβRII-Soluble Endogenous …)
[2] = biological target: T2, TβRII-Fc (TβRII extracellular domain fused to human IgG1 Fc) (human, UniProt P37173-1 23-166)
[3] = biological target: T1, TβRII-SE/Fc (TβRII-Soluble Endogenous …)
[4] = biological target: T2, TβRII-Fc (TβRII extracellular domain …); remark: listed apart in the source

T2 sequence (P37173 23-166): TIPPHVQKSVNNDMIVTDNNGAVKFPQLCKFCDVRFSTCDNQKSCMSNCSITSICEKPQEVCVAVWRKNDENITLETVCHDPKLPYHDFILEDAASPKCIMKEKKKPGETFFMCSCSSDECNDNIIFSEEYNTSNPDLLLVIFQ

Kd (1D11)	koff (1D11)	koff [1]	koff [2]	Kd [3]	Kd [4]	Binder
68 pM	0.00012 s⁻¹	0.00018 s⁻¹	0.00116 s⁻¹	93 pM	137 pM	B1
330 pM	0.0015 s⁻¹	0.00067 s⁻¹	0.0197 s⁻¹	674 pM	9500 pM	B2
